# Data from patent US20190055322A1.
# Several values for one entry are separate records, joined by “and”; a condition that tells them apart may be missing. Equal entries are not always repeated.
# B1: 1E11-40GS-5E02 (VHH)
# chain: EVQLVESGGGLVQPGGSLRLSCAASGSTRSVNPMAWFRQAPGRQREWVATISRSGYATYADSVKGRFTISGDNAKSSVYLQMNSLKPEDTAVYYCVTGTYWGQGTLVTVSSGGGGSGGGGSGGGGSGGGGSGGGGSGGGGSGGGGSGGGGSEVQLVESGGGLVQPGGSLRLSCAASGITLDSIAICWFRQAPGKEREGVSCSRGSDGSTYYADSVKGRFTISRVNAKNTVYLQMNSLKPEDTAVYYCAAAPSIFYSGGYFPSGMDYWGKGTQVTVSS
# B2: Nanobody 115 (11B09-40GS-13F07) (VHH)
# chain: EVQLVESGGGLVQAGGSLRLSCAASRLTFNHYNMGWFRQAPGKERERVAEVTWSGDKIYYVDSVKGRFTISRDNTPNPVYLYLQMNSLKPEDTAVYYCATAPRGLPYANGYWGQGTLVTVSSGGGGSGGGGSGGGGSGGGGSGGGGSGGGGSGGGGSGGGGSEVQLVESGGGLVQAGGSLRLSCAASGNTFSTNPMYWYRQAEGKQRELVASISSRGITNYADSVRGRFSISRDNTKDTVYLQMNSLKPEDTAVYYCRLASLSSGTVYWGKGTLVTVSS
# B3: 3E10-40GS-5H01 (VHH)
# chain: EVQLVESGGGLVQAGGSLRLSCTASGHTFSSYTMGWFRQAPGKEREFVAAMTRSGFNTHYSDSVKGRFTISRDNTSRDNTKITMALQMNSLKPEDTAVYYCTTGRGLTSYVANFWGQGTQVTVSSGGGGSGGGGSGGGGSGGGGSGGGGSGGGGSGGGGSGGGGSEVQLVESGGGLVQPGGSLRLSCAASGSTLDYYAIGWFRQAPGKEREGVSCTSNSGSTYYGGSVKGRFTASRDNAKNTVYLQMNSLRPEDTAVYYCVATIGCATLGGTLDVQRYYYRGQGTQVTVSS
# B4: 5E02-40GS-14E10 (VHH)
# chain: EVQLVESGGGLVQPGGSLRLSCAASGITLDSIAICWFRQAPGKEREGVSCSRGSDGSTYYADSVKGRFTISRVNAKNTVYLQMNSLKPEDTAVYYCAAAPSIFYSGGYFPSGMDYWGKGTQVTVSSGGGGSGGGGSGGGGSGGGGSGGGGSGGGGSGGGGSGGGGSEVQLVESGGGLVQPGGSLRLSCAASGRIFSINTMGWYRQAPGKQRELVAGVTINAITNYADSVKGRFTISRDNAKNTVWLQMNSLKPEDTAVYYCHAWARSSGSAPYSQNWGQGTQVTVSS
# B5: 4G10-40GS-7C10 (VHH)
# chain: EVQLVESGGGLVQAGGSLRLSCVISEDGVRNYDMGWFRQAPGKEREFVATINWSGGSTNYADSVKGRFTVSRDNAKNTMYLQMDSLKPEDTAVYYCVAAGFYNNYLRTAPNDWNDWGQGTQVTVSSGGGGSGGGGSGGGGSGGGGSGGGGSGGGGSGGGGSGGGGSEVQLVESGGGLVQAGGSLRLSCTASGRTLSSYTMGWFRQAPGTEREFVAAMTRSGFNTYYADSVKGRFTISRDSTENTMALQMSSLKPEDTAVYYCTAGRGLTSYRADYWGQGTLVTVSS
# B6: Nanobody 064 (13F07-40GS-7C10) (VHH)
# chain: EVQLVESGGGLVQAGGSLRLSCAASGNTFSTNPMYWYRQAEGKQRELVASISSRGITNYADSVRGRFSISRDNTKDTVYLQMNSLKPEDTAVYYCRLASLSSGTVYWGKGTLVTVSSGGGGSGGGGSGGGGSGGGGSGGGGSGGGGSGGGGSGGGGSEVQLVESGGGLVQAGGSLRLSCTASGRTLSSYTMGWFRQAPGTEREFVAAMTRSGFNTYYADSVKGRFTISRDSTENTMALQMSSLKPEDTAVYYCTAGRGLTSYRADYWGQGTLVTVSS
# B7: 3E10-40GS-2B10 (VHH)
# chain: EVQLVESGGGLVQAGGSLRLSCTASGHTFSSYTMGWFRQAPGKEREFVAAMTRSGFNTHYSDSVKGRFTISRDNTSRDNTKITMALQMNSLKPEDTAVYYCTTGRGLTSYVANFWGQGTQVTVSSGGGGSGGGGSGGGGSGGGGSGGGGSGGGGSGGGGSGGGGSEVQLVESGGGLVQPGGSLRLSCAASGSIFSINNMGWYRQAPGKQRELVTVVTSNLITTYADSVKGRFTISRDNAKNTVYLQMNSLKPEDTAVYYCNAWARSVGSVPYSQFWGQGTLVTVSS
# B8: 1E11-40GS-14B10 (VHH)
# chain: EVQLVESGGGLVQPGGSLRLSCAASGSTRSVNPMAWFRQAPGRQREWVATISRSGYATYADSVKGRFTISGDNAKSSVYLQMNSLKPEDTAVYYCVTGTYWGQGTLVTVSSGGGGSGGGGSGGGGSGGGGSGGGGSGGGGSGGGGSGGGGSEVQLVESGGGLVQPGGSLRLSCAASGRIFSINNMGWYHQAPGKQRELVATITMNGITTYADSVKGRFTISRDNAKNTVYLQMNSLKPEDTAVYYCSCWVRSSGGDPYRDYWGQGTQVTVSS
# B9: 1E11-40GS-4G10 (VHH)
# chain: EVQLVESGGGLVQPGGSLRLSCAASGSTRSVNPMAWFRQAPGRQREWVATISRSGYATYADSVKGRFTISGDNAKSSVYLQMNSLKPEDTAVYYCVTGTYWGQGTLVTVSSGGGGSGGGGSGGGGSGGGGSGGGGSGGGGSGGGGSGGGGSEVQLVESGGGLVQAGGSLRLSCVISEDGVRNYDMGWFRQAPGKEREFVATINWSGGSTNYADSVKGRFTVSRDNAKNTMYLQMDSLKPEDTAVYYCVAAGFYNNYLRTAPNDWNDWGQGTQVTVSS
# B10: Nanobody 262 (7E09-40GS-7C10) (VHH)
# chain: EVQLVESGGGLVQAGGSLRLSCAASGRTFSSYIMGWFRQAPGKAREFVADITWGQRPYYADSVKGRFTISRDNAKNTVYLEMNSLKPEDTAVYYCAADLGVVIREEHAYWGQGTLVTVSSGGGGSGGGGSGGGGSGGGGSGGGGSGGGGSGGGGSGGGGSEVQLVESGGGLVQAGGSLRLSCTASGRTLSSYTMGWFRQAPGTEREFVAAMTRSGFNTYYADSVKGRFTISRDSTENTMALQMSSLKPEDTAVYYCTAGRGLTSYRADYWGQGTLVTVSS
# B11: 5E02-40GS-1E11 (VHH)
# chain: EVQLVESGGGLVQPGGSLRLSCAASGITLDSIAICWFRQAPGKEREGVSCSRGSDGSTYYADSVKGRFTISRVNAKNTVYLQMNSLKPEDTAVYYCAAAPSIFYSGGYFPSGMDYWGKGTQVTVSSGGGGSGGGGSGGGGSGGGGSGGGGSGGGGSGGGGSGGGGSEVQLVESGGGLVQPGGSLRLSCAASGSTRSVNPMAWFRQAPGRQREWVATISRSGYATYADSVKGRFTISGDNAKSSVYLQMNSLKPEDTAVYYCVTGTYWGQGTLVTVSS
# B12: Nanobody 257 (13F07-40GS-2B10) (VHH)
# chain: EVQLVESGGGLVQAGGSLRLSCAASGNTFSTNPMYWYRQAEGKQRELVASISSRGITNYADSVRGRFSISRDNTKDTVYLQMNSLKPEDTAVYYCRLASLSSGTVYWGKGTLVTVSSGGGGSGGGGSGGGGSGGGGSGGGGSGGGGSGGGGSGGGGSEVQLVESGGGLVQPGGSLRLSCAASGSIFSINNMGWYRQAPGKQRELVTVVTSNLITTYADSVKGRFTISRDNAKNTVYLQMNSLKPEDTAVYYCNAWARSVGSVPYSQFWGQGTLVTVSS
# B13: Nanobody 275 (2G09-40GS-5H01) (VHH)
# chain: EVQLVESGGGLVQPGGSLRLSCAASGSFGDNYELYAMTWFRQAPGERRDFVASVTGDGSTSYADSVKDRFTISRDNAKKLMYLQMNSLKPEDTAVYYCRLLNYWGQGTLVTVSSGGGGSGGGGSGGGGSGGGGSGGGGSGGGGSGGGGSGGGGSEVQLVESGGGLVQPGGSLRLSCAASGSTLDYYAIGWFRQAPGKEREGVSCTSNSGSTYYGGSVKGRFTASRDNAKNTVYLQMNSLRPEDTAVYYCVATIGCATLGGTLDVQRYYYRGQGTLVTVSS
# B14: Nanobody 277 (5H01-40GS-11B09) (VHH)
# chain: EVQLVESGGGLVQPGGSLRLSCAASGSTLDYYAIGWFRQAPGKEREGVSCTSNSGSTYYGGSVKGRFTASRDNAKNTVYLQMNSLRPEDTAVYYCVATIGCATLGGTLDVQRYYYRGQGTLVTVSSGGGGSGGGGSGGGGSGGGGSGGGGSGGGGSGGGGSGGGGSEVQLVESGGGLVQAGGSLRLSCAASRLTFNHYNMGWFRQAPGKERERVAEVTWSGDKIYYVDSVKGRFTISRDNTPNPVYLYLQMNSLKPEDTAVYYCATAPRGLPYANGYWGQGTLVTVSS
# B15: Nanobody 271 (7C10-40GS-14E10) (VHH)
# chain: EVQLVESGGGLVQAGGSLRLSCTASGRTLSSYTMGWFRQAPGTEREFVAAMTRSGFNTYYADSVKGRFTISRDSTENTMALQMSSLKPEDTAVYYCTAGRGLTSYRADYWGQGTLVTVSSGGGGSGGGGSGGGGSGGGGSGGGGSGGGGSGGGGSGGGGSEVQLVESGGGLVQPGGSLRLSCAASGRIFSINTMGWYRQAPGKQRELVAGVTINAITNYADSVKGRFTISRDNAKNTVWLQMNSLKPEDTAVYYCHAWARSSGSAPYSQNWGQGTLVTVSS
# B16: Nanobody 261 (5H01-40GS-2B10) (VHH)
# chain: EVQLVESGGGLVQPGGSLRLSCAASGSTLDYYAIGWFRQAPGKEREGVSCTSNSGSTYYGGSVKGRFTASRDNAKNTVYLQMNSLRPEDTAVYYCVATIGCATLGGTLDVQRYYYRGQGTLVTVSSGGGGSGGGGSGGGGSGGGGSGGGGSGGGGSGGGGSGGGGSEVQLVESGGGLVQPGGSLRLSCAASGSIFSINNMGWYRQAPGKQRELVTVVTSNLITTYADSVKGRFTISRDNAKNTVYLQMNSLKPEDTAVYYCNAWARSVGSVPYSQFWGQGTLVTVSS
# B17: Nanobody 256 (13F07-40GS-5H01) (VHH)
# chain: EVQLVESGGGLVQAGGSLRLSCAASGNTFSTNPMYWYRQAEGKQRELVASISSRGITNYADSVRGRFSISRDNTKDTVYLQMNSLKPEDTAVYYCRLASLSSGTVYWGKGTLVTVSSGGGGSGGGGSGGGGSGGGGSGGGGSGGGGSGGGGSGGGGSEVQLVESGGGLVQPGGSLRLSCAASGSTLDYYAIGWFRQAPGKEREGVSCTSNSGSTYYGGSVKGRFTASRDNAKNTVYLQMNSLRPEDTAVYYCVATIGCATLGGTLDVQRYYYRGQGTLVTVSS
# B18: Nanobody 259 (1E11-40GS-5H01) (VHH)
# chain: EVQLVESGGGLVQPGGSLRLSCAASGSTRSVNPMAWFRQAPGRQREWVATISRSGYATYADSVKGRFTISGDNAKSSVYLQMNSLKPEDTAVYYCVTGTYWGQGTLVTVSSGGGGSGGGGSGGGGSGGGGSGGGGSGGGGSGGGGSGGGGSEVQLVESGGGLVQPGGSLRLSCAASGSTLDYYAIGWFRQAPGKEREGVSCTSNSGSTYYGGSVKGRFTASRDNAKNTVYLQMNSLRPEDTAVYYCVATIGCATLGGTLDVQRYYYRGQGTLVTVSS
# Molecular target: PcrV of P. aeruginosa strain PA103 (on TTSS-induced bacteria) (Pseudomonas aeruginosa strain PA103)
# Test: cell-based or functional assay
row,Binder,"% inhibition in P3X63 cytotoxicity assay, extract 1/150 [%]"
1,B1,44
2,B2,82
3,B3,85
4,B4,48
5,B5,81
6,B6,74
7,B7,52
8,B8,52
9,B9,67
10,B10,48
11,B11,60

# Molecular target: different PcrV variants and reference strain PAO1 (23 PcrV sequence variants, GST-PcrV-His6)
# Test: not given
row,Binder,EC50
1,B12,0.07 nM and 0.09 nM
2,B13,0.6 nM and 0.9 nM
3,B14,0.07 nM and 0.1 nM
4,B15,0.06 nM and 0.1 nM
5,B16,0.06 nM and 0.07 nM
6,B17,0.07 nM and 0.1 nM
7,B18,0.01 nM and 0.02 nM
